{"source": "paper PMC5923235", "key": {"[1]": {"target": "NTS1 A90C^1.58 (TM1) in the Cys-depleted background of rat neurotensin receptor 1 (rat) (UniProt P20789)", "experiment": "FRET or BRET; ensemble FRET as for the apo samples, with 5 μM agonist neurotensin (+NT); A488- and A555-labelled NTS1 1:1 in brain polar lipid liposomes; room temperature"}, "[2]": {"target": "NTS1 A90C^1.58 (TM1) in the Cys-depleted background of rat neurotensin receptor 1 (rat) (UniProt P20789)", "experiment": "FRET or BRET; ensemble FRET; A488- and A555-labelled NTS1 reconstituted together 1:1 in brain polar lipid liposomes; apo; ~1 μM receptor; 50 mM Tris-HCl pH 7.4, 50 mM NaCl, 1 mM EDTA, 10% glycerol; room temperature; Ecor corrected for donor-to-acceptor ratio"}, "[3]": {"target": "NTS1 A261C^5.52 (TM5) in the Cys-depleted background of rat neurotensin receptor 1 (rat) (UniProt P20789)", "experiment": "FRET or BRET; ensemble FRET as for the apo samples, with 5 μM agonist neurotensin (+NT); A488- and A555-labelled NTS1 1:1 in brain polar lipid liposomes; room temperature"}, "[4]": {"target": "NTS1 A261C^5.52 (TM5) in the Cys-depleted background of rat neurotensin receptor 1 (rat) (UniProt P20789)", "experiment": "FRET or BRET; ensemble FRET; A488- and A555-labelled NTS1 reconstituted together 1:1 in brain polar lipid liposomes; apo; ~1 μM receptor; 50 mM Tris-HCl pH 7.4, 50 mM NaCl, 1 mM EDTA, 10% glycerol; room temperature; Ecor corrected for donor-to-acceptor ratio"}, "[5]": {"target": "NTS1 L371C^7.55 (TM7) in the Cys-depleted background of rat neurotensin receptor 1 (rat) (UniProt P20789)", "experiment": "FRET or BRET; ensemble FRET as for the apo samples, with 5 μM agonist neurotensin (+NT); A488- and A555-labelled NTS1 1:1 in brain polar lipid liposomes; room temperature"}, "[6]": {"target": "NTS1 L371C^7.55 (TM7) in the Cys-depleted background of rat neurotensin receptor 1 (rat) (UniProt P20789)", "experiment": "FRET or BRET; ensemble FRET; A488- and A555-labelled NTS1 reconstituted together 1:1 in brain polar lipid liposomes; apo; ~1 μM receptor; 50 mM Tris-HCl pH 7.4, 50 mM NaCl, 1 mM EDTA, 10% glycerol; room temperature; Ecor corrected for donor-to-acceptor ratio"}, "[7]": {"target": "NTS1 Q378C^8.52 (H8) in the Cys-depleted background of rat neurotensin receptor 1 (rat) (UniProt P20789)", "experiment": "FRET or BRET; ensemble FRET as for the apo samples, with 5 μM agonist neurotensin (+NT); A488- and A555-labelled NTS1 1:1 in brain polar lipid liposomes; room temperature"}, "[8]": {"target": "NTS1 Q378C^8.52 (H8) in the Cys-depleted background of rat neurotensin receptor 1 (rat) (UniProt P20789)", "experiment": "FRET or BRET; ensemble FRET; A488- and A555-labelled NTS1 reconstituted together 1:1 in brain polar lipid liposomes; apo; ~1 μM receptor; 50 mM Tris-HCl pH 7.4, 50 mM NaCl, 1 mM EDTA, 10% glycerol; room temperature; Ecor corrected for donor-to-acceptor ratio"}, "[9]": {"target": "NTS1 S(C)172C^3.55 (TM3, re-introduced native Cys) in the Cys-depleted background of rat neurotensin receptor 1 (rat) (UniProt P20789)", "experiment": "FRET or BRET; ensemble FRET as for the apo samples, with 5 μM agonist neurotensin (+NT); A488- and A555-labelled NTS1 1:1 in brain polar lipid liposomes; room temperature"}, "[10]": {"target": "NTS1 S(C)172C^3.55 (TM3, re-introduced native Cys) in the Cys-depleted background of rat neurotensin receptor 1 (rat) (UniProt P20789)", "experiment": "FRET or BRET; ensemble FRET; A488- and A555-labelled NTS1 reconstituted together 1:1 in brain polar lipid liposomes; apo; ~1 μM receptor; 50 mM Tris-HCl pH 7.4, 50 mM NaCl, 1 mM EDTA, 10% glycerol; room temperature; Ecor corrected for donor-to-acceptor ratio"}, "[11]": {"target": "NTS1 T186C^4.42 (TM4) in the Cys-depleted background of rat neurotensin receptor 1 (rat) (UniProt P20789)", "experiment": "FRET or BRET; ensemble FRET as for the apo samples, with 5 μM agonist neurotensin (+NT); A488- and A555-labelled NTS1 1:1 in brain polar lipid liposomes; room temperature"}, "[12]": {"target": "NTS1 T186C^4.42 (TM4) in the Cys-depleted background of rat neurotensin receptor 1 (rat) (UniProt P20789)", "experiment": "FRET or BRET; ensemble FRET; A488- and A555-labelled NTS1 reconstituted together 1:1 in brain polar lipid liposomes; apo; ~1 μM receptor; 50 mM Tris-HCl pH 7.4, 50 mM NaCl, 1 mM EDTA, 10% glycerol; room temperature; Ecor corrected for donor-to-acceptor ratio"}, "[13]": {"target": "NTS1 T186C^4.42 (TM4) in the Cys-depleted background of rat neurotensin receptor 1 (rat) (UniProt P20789)", "experiment": "FRET or BRET; single-molecule FRET by TIRF microscopy; Cy3- and Cy5-labelled NTS1 T186C in DPhPC droplet interface bilayers, 100:405:45 Cy3:Cy5:unlabelled, receptor density 0.43 μm^-2; 50 mM NaCl, 1 mM EDTA, 50 mM Tris-HCl pH 7.4; 30 ms frames; constants are of dimer to monomers in two dimensions"}, "[14]": {"target": "NTS1 V307C^6.34 (TM6) in the Cys-depleted background of rat neurotensin receptor 1 (rat) (UniProt P20789)", "experiment": "FRET or BRET; ensemble FRET as for the apo samples, with 5 μM agonist neurotensin (+NT); A488- and A555-labelled NTS1 1:1 in brain polar lipid liposomes; room temperature"}, "[15]": {"target": "NTS1 V307C^6.34 (TM6) in the Cys-depleted background of rat neurotensin receptor 1 (rat) (UniProt P20789)", "experiment": "FRET or BRET; ensemble FRET; A488- and A555-labelled NTS1 reconstituted together 1:1 in brain polar lipid liposomes; apo; ~1 μM receptor; 50 mM Tris-HCl pH 7.4, 50 mM NaCl, 1 mM EDTA, 10% glycerol; room temperature; Ecor corrected for donor-to-acceptor ratio"}, "[16]": {"target": "NTS1 Y104C^2.41 (TM2) in the Cys-depleted background of rat neurotensin receptor 1 (rat) (UniProt P20789)", "experiment": "FRET or BRET; ensemble FRET as for the apo samples, with 5 μM agonist neurotensin (+NT); A488- and A555-labelled NTS1 1:1 in brain polar lipid liposomes; room temperature"}, "[17]": {"target": "NTS1 Y104C^2.41 (TM2) in the Cys-depleted background of rat neurotensin receptor 1 (rat) (UniProt P20789)", "experiment": "FRET or BRET; ensemble FRET; A488- and A555-labelled NTS1 reconstituted together 1:1 in brain polar lipid liposomes; apo; ~1 μM receptor; 50 mM Tris-HCl pH 7.4, 50 mM NaCl, 1 mM EDTA, 10% glycerol; room temperature; Ecor corrected for donor-to-acceptor ratio"}}, "data": [{"substance": "NTS1 A90C^1.58 (TM1) in the Cys-depleted background of rat neurotensin receptor 1 (from UniProt P20789 43-424)", "values": [{"measurement": "Ecor(+NT)", "setting": "[1]", "value": 0.77}, {"measurement": "Ecor(apo)", "setting": "[2]", "value": 0.73}]}, {"substance": "NTS1 A261C^5.52 (TM5) in the Cys-depleted background of rat neurotensin receptor 1 (from UniProt P20789 43-424)", "values": [{"measurement": "Ecor(+NT)", "setting": "[3]", "value": 1.05}, {"measurement": "Ecor(apo)", "setting": "[4]", "value": 0.98}]}, {"substance": "NTS1 L371C^7.55 (TM7) in the Cys-depleted background of rat neurotensin receptor 1 (from UniProt P20789 43-424)", "values": [{"measurement": "Ecor(+NT)", "setting": "[5]", "value": 0.7}, {"measurement": "Ecor(apo)", "setting": "[6]", "value": 0.68}]}, {"substance": "NTS1 Q378C^8.52 (H8) in the Cys-depleted background of rat neurotensin receptor 1 (from UniProt P20789 43-424)", "values": [{"measurement": "Ecor(+NT)", "setting": "[7]", "value": 0.89}, {"measurement": "Ecor(apo)", "setting": "[8]", "value": 0.89}]}, {"substance": "NTS1 S(C)172C^3.55 (TM3, re-introduced native Cys) in the Cys-depleted background of rat neurotensin receptor 1 (from UniProt P20789 43-424)", "values": [{"measurement": "Ecor(+NT)", "setting": "[9]", "value": 1.02}, {"measurement": "Ecor(apo)", "setting": "[10]", "value": 1.03}]}, {"substance": "NTS1 T186C^4.42 (TM4) in the Cys-depleted background of rat neurotensin receptor 1 (from UniProt P20789 43-424)", "values": [{"measurement": "Ecor(+NT)", "setting": "[11]", "value": 0.78}, {"measurement": "Ecor(apo)", "setting": "[12]", "value": 0.77}, {"measurement": "dimer half-life t1/2", "setting": "[13]", "value": 1.2, "unit": "s"}, {"measurement": "koff", "setting": "[13]", "value": 0.58, "unit": "s⁻¹"}, {"measurement": "percent of receptors as dimers at 0.43 molecules per μm^2", "setting": "[13]", "value": 9.8, "unit": "%"}, {"measurement": "stoichiometry N", "setting": "[13]", "value": 2}]}, {"substance": "NTS1 V307C^6.34 (TM6) in the Cys-depleted background of rat neurotensin receptor 1 (from UniProt P20789 43-424)", "values": [{"measurement": "Ecor(+NT)", "setting": "[14]", "value": 0.82}, {"measurement": "Ecor(apo)", "setting": "[15]", "value": 0.99}]}, {"substance": "NTS1 Y104C^2.41 (TM2) in the Cys-depleted background of rat neurotensin receptor 1 (from UniProt P20789 43-424)", "values": [{"measurement": "Ecor(+NT)", "setting": "[16]", "value": 0.9}, {"measurement": "Ecor(apo)", "setting": "[17]", "value": 0.9}]}]}
